How the values were obtained:
[1] = target: T1, ADI-26906 IgG; assay: SPR Carterra avidity, CHO anti-ID, *koff limit
T1 construct: anti-CD3 IgG
Procedure: (§1) Kinetic analysis was conducted at 25° C. in an HBSTE running buffer system (Carterra Cat #3630) using a Carterra LSA (Carterra USA, Salt Lake City, UT). The sample compartment was maintained at 20° C. for the duration of each experiment.
(§2) For antibody capture experiments, a goat anti-human Fc antibody (Jackson ImmunoResearch) was covalently coupled to an HC30M sensor chip surface via standard amine coupling (1:1 EDC:NHS) and then blocked with ethanolamine (1.0 M, pH 8.5). Covalent coupling steps were performed in 25 mM MES buffer (Carterra, Cat #3625) plus 0.05% Tween20. The anti-CD3 antibodies (100 nM in running buffer) were flowed over discrete regions of interest on the chip surface for 5 minutes. […] Dissociation of the anti-idiotype antibodies was monitored for 300s. Several blank buffer samples were injected over the entire chip surface at the start of each non-regenerative kinetic cycle. The preceding blank buffer injection was used for blank surface subtraction. At the end of each non-regenerative kinetic cycle, all surfaces were regenerated via two 30s injections of 10 mM glycine, pH 1.7.
For data processing and fitting, sensorgrams were double reference subtracted with a baseline drift correction of 4 RU. Sensorgrams were y-aligned and baseline corrected, filtered and cropped to include only the association and dissociation steps. Data was fitted to a 1:1 binding model using Carterra Kinetics Data Analysis software version 1.7.1.3055.

[2] = target: T2, ADI-22523 Fab; assay: BLI; tip anti-ID IgG, solution ADI-22523 Fab
T2 construct: anti-CD3 Fab by papain digestion of the IgG
T2 sequence (VH, as listed by the source limits assumed, chain 1 of 2): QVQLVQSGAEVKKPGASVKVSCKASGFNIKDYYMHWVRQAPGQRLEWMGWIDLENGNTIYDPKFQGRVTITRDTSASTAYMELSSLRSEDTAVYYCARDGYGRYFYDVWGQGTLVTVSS
T2 sequence (VL, as listed by the source limits assumed, chain 2 of 2): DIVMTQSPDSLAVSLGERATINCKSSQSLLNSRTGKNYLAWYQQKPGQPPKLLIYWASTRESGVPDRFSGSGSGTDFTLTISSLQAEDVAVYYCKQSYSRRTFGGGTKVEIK
Outline: (§3)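 Sensors carrying captured anti-ID IgG were equilibrated 30 min in assay buffer before a 60 s baseline. Equilibrium KD was taken as koff/kon from a 1:1 model.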

[3] = target: T3, ADI-22523 IgG; assay: BLI; tip anti-ID IgG, solution ADI-22523 IgG
T3 construct: anti-CD3 IgG
Outline: as §3

[4] = target: T4, ADI-26924; assay: SPR Carterra avidity, yeast anti-ID
T4 construct: anti-CD3 antibody made in CHO cells, captured by anti-human Fc
T4 sequence (VH, as listed by the source, chain 1 of 2): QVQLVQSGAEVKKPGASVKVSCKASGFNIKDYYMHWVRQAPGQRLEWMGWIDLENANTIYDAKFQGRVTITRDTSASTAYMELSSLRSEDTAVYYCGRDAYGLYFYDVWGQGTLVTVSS
T4 sequence (VL, as listed by the source, chain 2 of 2): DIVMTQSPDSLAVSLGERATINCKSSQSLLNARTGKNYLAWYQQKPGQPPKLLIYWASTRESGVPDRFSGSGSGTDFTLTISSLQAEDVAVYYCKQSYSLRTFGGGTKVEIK
Outline: (§4)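 Anti-human Fc capture chip (amine coupled); anti-CD3 IgG 100 nM, 5 min capture; 25° C, HBSTE. Non-regenerative kinetic cycles, anti-ID dissociation 300s; glycine pH 1.7 regeneration. Double-reference subtraction, 1:1 fit.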

[5] = target: T5, ADI-76357; assay: SPR Carterra avidity, yeast anti-ID
T5 construct: anti-CD3 antibody made in CHO cells, captured by anti-human Fc
T5 sequence (VH, as listed by the source, chain 1 of 2): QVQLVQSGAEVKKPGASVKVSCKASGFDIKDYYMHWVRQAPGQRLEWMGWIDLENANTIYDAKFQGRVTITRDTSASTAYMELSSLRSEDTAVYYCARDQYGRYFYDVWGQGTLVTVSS
T5 sequence (VL, as listed by the source, chain 2 of 2): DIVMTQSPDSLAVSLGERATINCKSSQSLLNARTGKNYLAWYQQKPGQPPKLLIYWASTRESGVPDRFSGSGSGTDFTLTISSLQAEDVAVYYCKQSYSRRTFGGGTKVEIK
Outline: as §4

[6] = target: T6, ADI-26920 IgG; assay: SPR Carterra avidity, yeast anti-ID
T6 construct: anti-CD3 IgG
T6 sequence (VH, as listed by the source limits assumed, chain 1 of 2): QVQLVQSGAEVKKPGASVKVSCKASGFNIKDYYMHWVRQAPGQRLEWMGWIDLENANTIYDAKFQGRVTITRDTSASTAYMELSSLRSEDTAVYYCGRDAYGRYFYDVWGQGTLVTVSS
Outline: as §4

[7] = target: T7, ADI-26913 IgG; assay: SPR Carterra avidity, yeast anti-ID
T7 construct: anti-CD3 IgG
T7 sequence (VH, as listed by the source limits assumed, chain 1 of 2): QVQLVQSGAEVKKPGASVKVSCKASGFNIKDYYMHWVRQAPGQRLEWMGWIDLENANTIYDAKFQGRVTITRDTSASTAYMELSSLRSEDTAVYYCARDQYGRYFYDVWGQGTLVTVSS
Outline: as §4

[8] = target: T8, ADI-26919; assay: SPR Carterra avidity, yeast anti-ID
T8 construct: anti-CD3 antibody made in CHO cells, captured by anti-human Fc
T8 sequence (VH, as listed by the source limits assumed, chain 1 of 2): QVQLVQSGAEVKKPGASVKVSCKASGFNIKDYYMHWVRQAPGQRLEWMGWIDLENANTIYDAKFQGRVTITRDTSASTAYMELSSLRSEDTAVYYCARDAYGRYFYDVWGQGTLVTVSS
Outline: as §4

[9] = target: T9, ADI-26943; assay: SPR Carterra avidity, yeast anti-ID
T9 construct: anti-CD3 antibody made in CHO cells, captured by anti-human Fc
T9 sequence (VH, as listed by the source, chain 1 of 2): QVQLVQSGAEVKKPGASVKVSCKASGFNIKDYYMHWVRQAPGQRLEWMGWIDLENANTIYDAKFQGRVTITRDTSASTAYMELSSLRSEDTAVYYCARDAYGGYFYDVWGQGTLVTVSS
T9 sequence (VL, as listed by the source, chain 2 of 2): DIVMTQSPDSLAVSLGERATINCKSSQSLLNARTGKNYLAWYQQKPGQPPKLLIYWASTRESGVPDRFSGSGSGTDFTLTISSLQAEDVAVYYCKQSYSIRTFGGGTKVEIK
Outline: as §4

[10] = target: T10, ADI-76359; assay: SPR Carterra avidity, CHO anti-ID
T10 construct: anti-CD3 antibody made in CHO cells, captured by anti-human Fc
T10 sequence (VH, as listed by the source, chain 1 of 2): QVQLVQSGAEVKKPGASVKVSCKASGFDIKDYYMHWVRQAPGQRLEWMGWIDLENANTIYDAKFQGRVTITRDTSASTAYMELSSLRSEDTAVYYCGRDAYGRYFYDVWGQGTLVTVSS
Procedure: as §1, §2
(§5) In Tables 10A-10C, anti-CD3 antibodies are listed by ADI number or CTL number in the first column. […] CTL-62223 is mosunetuzumab, CTL-62227 is odronextamab, CTL-62228 is glofitamab, and CTL-62240 is ONO-4685. […] “W.B.” means weak binding under the conditions of this assay and thus a KD was unable to be assigned. “N.B.” means no binding under the conditions of this assay.

[11] = target: T11, ADI-74968; assay: SPR Carterra avidity, CHO anti-ID
T11 construct: pH-dependent anti-CD3 antibody made in CHO cells
T11 sequence (VH, as listed by the source, chain 1 of 2): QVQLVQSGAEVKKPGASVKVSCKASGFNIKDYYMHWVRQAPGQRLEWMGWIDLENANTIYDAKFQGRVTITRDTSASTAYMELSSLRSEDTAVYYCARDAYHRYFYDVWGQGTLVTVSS
T11 sequence (VL, as listed by the source, chain 2 of 2): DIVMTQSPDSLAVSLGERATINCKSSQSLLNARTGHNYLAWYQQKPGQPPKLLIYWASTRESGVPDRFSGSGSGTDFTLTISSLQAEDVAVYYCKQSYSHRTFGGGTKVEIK
Procedure: as §1, §2, §5

[12] = target: T12, ADI-26916 IgG; assay: SPR Carterra avidity, CHO anti-ID
T12 construct: anti-CD3 IgG
T12 sequence (VH, as listed by the source, chain 1 of 2): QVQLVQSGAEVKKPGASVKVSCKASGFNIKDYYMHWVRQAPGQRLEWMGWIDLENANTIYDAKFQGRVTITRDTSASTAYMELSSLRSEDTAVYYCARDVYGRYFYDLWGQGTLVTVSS
Procedure: as §1, §2, §5

[13] = target: T13, ADI-26920 anti-CD3 bsIgG; assay: BLI; tip anti-CD3 bsIgG, solution ADI-34134 IgG
T13 construct: anti-HER2 IgG with one Fab arm replaced by the anti-CD3 scFv (printed 'Vx-VH', read as VL-VH); S354C and Y349C mutations; also called anti-CD3 bsIgG (ADI-26920 scFv); not shown: scFv linker; anti-HER2 Fab arm (heavy and light chain); hinge and Fc with S354C/Y349C
Procedure: (§6) ForteBio affinity measurements were performed generally as previously described (Estep et al., MAbs. 2013 5(2):270-8). Briefly, ForteBio affinity measurements were performed by loading antibody IgG or Fabs on-line onto AHC sensors. Sensors were equilibrated off-line in assay buffer for 30 minutes and then monitored on-line for 60 seconds for baseline establishment. For avid binding measurement, sensors with loaded antibodies were exposed to IgG or Fab solutions for 3 minutes, afterwards they were transferred to assay buffer for 3 minutes for off-rate measurement. Kinetics data were fit using a 1:1 binding model in the data analysis software provided by ForteBio to obtain equilibrium dissociation constant (KD=koff/kₒₙ) values. In each column, tip-immobilized antibodies are listed first and solution antibodies second.
(§7) Additional analysis was conducted using bispecific antibody formats incorporating anti-CD3 antibody variable domains. Bispecific antibodies were prepared using standard IgG formats (bsIgG) with replacement of Fab arms with anti-CD3 scFvs in Vx-VH orientation and with S354C and Y349C mutations for disulfide stabilization. Antibodies used for Fab arm replacement were anti-HER2 IgG antibodies, with one Fab arm from each replaced by a scFv corresponding to a different anti-CD3 antibody. […] In each column, tip-immobilized antibodies are listed first and solution antibodies second. Anti-CD3 antibodies associated with incorporated scFvs are listed by antibody number.

[14] = target: T14, ADI-26921 anti-CD3 bsIgG; assay: BLI; tip anti-CD3 bsIgG, solution ADI-34134 IgG
T14 construct: anti-HER2 IgG with one Fab arm replaced by the anti-CD3 scFv (printed 'Vx-VH', read as VL-VH); S354C and Y349C mutations; also called anti-CD3 bsIgG (ADI-26921 scFv); not shown: scFv linker; anti-HER2 Fab arm (heavy and light chain); hinge and Fc with S354C/Y349C
T14 sequence (VH, as listed by the source limits assumed, chain 1 of 2): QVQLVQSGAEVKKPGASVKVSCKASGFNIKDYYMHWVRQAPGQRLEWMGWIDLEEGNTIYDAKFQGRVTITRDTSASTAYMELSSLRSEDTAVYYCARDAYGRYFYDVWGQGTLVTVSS
Procedure: as §6, §7

[15] = target: T15, ADI-26906 anti-CD3 bsIgG; assay: BLI; tip anti-CD3 bsIgG, solution ADI-34134 IgG
T15 construct: anti-HER2 IgG with one Fab arm replaced by the anti-CD3 scFv (printed 'Vx-VH', read as VL-VH); S354C and Y349C mutations; also called anti-CD3 bsIgG (ADI-26906 scFv); not shown: scFv linker; anti-HER2 Fab arm (heavy and light chain); hinge and Fc with S354C/Y349C
Procedure: as §6, §7

[16] = target: T16, ADI-26927 anti-CD3 bsIgG; assay: BLI; tip anti-CD3 bsIgG, solution ADI-34134 IgG
T16 construct: anti-HER2 IgG with one Fab arm replaced by the anti-CD3 scFv (printed 'Vx-VH', read as VL-VH); S354C and Y349C mutations; also called anti-CD3 bsIgG (ADI-26927 scFv); not shown: scFv linker; anti-HER2 Fab arm (heavy and light chain); hinge and Fc with S354C/Y349C
T16 sequence (VH, as listed by the source limits assumed, chain 1 of 2): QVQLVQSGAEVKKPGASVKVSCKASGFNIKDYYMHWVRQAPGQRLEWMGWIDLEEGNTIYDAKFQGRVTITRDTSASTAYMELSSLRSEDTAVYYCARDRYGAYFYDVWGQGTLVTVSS
Procedure: as §6, §7

Row | Binder | Kd [1] [nM] | Kd [2] [nM] | Kd [3] [nM] | Kd [4] [nM] | Kd [5] [nM] | Kd [6] [nM] | Kd [7] [nM] | Kd [8] [nM] | Kd [9] [nM] | Kd [10] [nM] | Kd [11] [nM] | Kd [12] [nM] | Kd [13] [nM] | Kd [14] [nM] | Kd [15] [nM] | Kd [16] [nM]
1 | ADI-34145 IgG (antibody, V domains shown, anti-ID IgG) VH: EVQLLESGGGLVQPGGSLRLSCAASGFTFSSYAMSWVRQAPGKGLEWVSTISGSGGSTYYADSVKGRFTISRDNSKNTLYLQMNSLRAEDTAVYYCARLGGRRGSGSSYYYYYGMDVWGQGTTVTVSS VL: not shown | 6.4 | 4.13 | 2.72 | 17 | 23 | 8.6 | 18 | 18 | 9.5 | 8 | 41 | 17 |  |  |  | 
2 | ADI-34134 IgG (antibody, V domains shown) VH: QVQLVQSGAEVKKPGSSVKVSCKASGGTFSSYAISWVRQAPGQGLEWMGGIIPIFGTANYAQKFQGRVTITADESTSTAYMELSSLRSEDTAVYYCARGAPNYYGSGGYDDGWFDPWGQGTLVTVSS VL: EIVLTQSPGTLSLSPGERATLSCRASQSVSSDYLAWYQQKPGQAPRLLIYGASSRATGIPDRFSGSGSGTDFTLTISRLEPEDFAVYYCQQFGRVPTFGGGTKVEIK | 0.18 | 5.62 | 0.46 | 20 | 9.5 | 16 | 21 | 9.1 | 13 | 0.15 | 0.78 | 0.17 | 0.47 | 0.94 | 0.75 | 1.02

Source: US20250019439A1 (Adimab, published 2025)
